Measured values as given in patent publication US20250313644A1 (FUTUREGEN BIOPHARMACEUTICAL BEIJING, published 2025).
Where two headings read alike, the source gives them in different places.

Experiments:
human TL1A (HuTL1A) [1] = target: T1, human TL1A (HuTL1A) (human, UniProt O95150 57-251, limits assumed, biotin-labelled in some assays (site not stated)); experiment: ELISA: biotin-HuTL1A on streptavidin plate, antibody diluted at pH 7.4, HRP-anti-human Fc, OD450
T1 construct: Expressed in EXPI-293 cells and purified by Ni-NTA (His-tag); Described as a trimeric antigen; also called TL1A antigen; WT
T1 sequence: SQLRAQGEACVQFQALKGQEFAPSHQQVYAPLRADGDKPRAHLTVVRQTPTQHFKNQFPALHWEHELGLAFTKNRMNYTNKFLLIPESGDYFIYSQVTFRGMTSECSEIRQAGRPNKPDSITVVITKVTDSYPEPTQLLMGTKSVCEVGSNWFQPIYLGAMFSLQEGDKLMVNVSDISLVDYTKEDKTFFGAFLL
Procedure: (§1) Corresponding antibodies were added to specific wells, and the antibodies were diluted with sodium dihydrogen phosphate-citrate buffer at pH 7.4, pH 6.0, pH 5.8, or pH 5.6. Binding assay was carried out at room temperature for 30 minutes. After the incubation, the excess antibodies were removed and the wells were washed by PBST. HRP-anti-Human Fc (Sino Biological) was then added into each well and incubated for 30 minutes to detect the bound antibody. The substrate TMB was finally added to develop color for 5-10 minutes. The color development reaction was terminated with 1M sulfuric acid. OD450 nm was recorded on a microplate reader, and the data were processed and fitted by 4 parameter logistic regression.

[2] = target: T2, HuTL1A mutant V102A (mutant number 4139) (human, UniProt O95150 57-251, limits assumed); experiment: BLI (Gator) on antigen mutant V102A
T2 construct: whole entry named
T2 chain: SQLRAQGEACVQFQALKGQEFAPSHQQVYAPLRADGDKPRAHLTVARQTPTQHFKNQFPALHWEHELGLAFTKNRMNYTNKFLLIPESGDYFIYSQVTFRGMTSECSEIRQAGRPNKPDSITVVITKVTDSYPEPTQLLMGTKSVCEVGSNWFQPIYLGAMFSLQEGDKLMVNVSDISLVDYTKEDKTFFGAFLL

[3] = target: T3, HuTL1A mutant S234A (mutant number 4133) (human, UniProt O95150 57-251, limits assumed); experiment: BLI (Gator) on antigen mutant S234A
T3 construct: whole entry named
T3 chain: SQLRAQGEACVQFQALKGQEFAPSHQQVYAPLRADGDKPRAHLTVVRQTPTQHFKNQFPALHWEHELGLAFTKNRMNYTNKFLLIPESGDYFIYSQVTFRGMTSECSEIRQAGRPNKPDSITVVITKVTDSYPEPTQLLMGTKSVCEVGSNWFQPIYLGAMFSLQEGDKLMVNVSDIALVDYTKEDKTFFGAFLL

[4] = target: T4, HuTL1A mutant Y238A (mutant number 4134) (human, UniProt O95150 57-251, limits assumed); experiment: BLI (Gator) on antigen mutant Y238A
T4 construct: whole entry named
T4 chain: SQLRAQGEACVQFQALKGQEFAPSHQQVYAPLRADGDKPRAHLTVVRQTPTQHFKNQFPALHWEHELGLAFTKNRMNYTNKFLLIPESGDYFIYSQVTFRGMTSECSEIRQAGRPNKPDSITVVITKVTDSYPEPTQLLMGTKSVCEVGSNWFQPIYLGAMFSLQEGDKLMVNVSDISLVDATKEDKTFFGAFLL

human TL1A (HuTL1A) [5] = target: T1, human TL1A (HuTL1A); experiment: BLI (Gator) on WT antigen (3907)
human TL1A (HuTL1A) [6] = target: T1, human TL1A (HuTL1A); experiment: ELISA: biotin-HuTL1A on streptavidin plate, antibody diluted at pH 7.4, HRP-anti-human Fc, OD450; remark: listed apart in the source
Procedure: as §1

[7] = target: T5, cynomolgus monkey/rhesus monkey TL1A (cynomolgus monkey/rhesus monkey); experiment: BLI (Gator), His-tagged TL1A on anti-His probe, pH 7.4
T5 construct: also called Cynomolgus/rhesus monkey TL1A
Procedure: (§2) Then a serial dilutions of single-arm M701 antibodies and control antibodies were added.

human TL1A (HuTL1A) [8] = target: T1, human TL1A (HuTL1A); experiment: as above
Procedure: as §2

human TL1A (HuTL1A) [9] = target: T1, human TL1A (HuTL1A); experiment: BLI (Gator), biotin-HuTL1A on SA probe, pH 7.4; BLI (Gator), pH 7.4
Procedure: The binding kinetics between monoclonal antibodies and antigens was measured using Gator, a label-free biomolecule interaction analyzer based on the principle of biolayer interference (BLI). […] Then a serial dilutions of single-arm M701 antibodies and control antibodies were added. The antibodies interacted with the antigen captured by the SA probe, and the interaction was analyzed by detecting the signal change of the reflection interference spectrum of the probe surface, and finally the binding kinetics constants of the antibodies were calculated. The kinetic constants of antigen and antibodies were measured at pH 7.4 and 5.6 in sodium dihydrogen phosphate-citrate buffer.

[10] = target: T6, HuTL1A mutant H118A (mutant number 4137) (human, UniProt O95150 57-251, limits assumed); experiment: BLI (Gator) on antigen mutant H118A
T6 construct: whole entry named
T6 chain: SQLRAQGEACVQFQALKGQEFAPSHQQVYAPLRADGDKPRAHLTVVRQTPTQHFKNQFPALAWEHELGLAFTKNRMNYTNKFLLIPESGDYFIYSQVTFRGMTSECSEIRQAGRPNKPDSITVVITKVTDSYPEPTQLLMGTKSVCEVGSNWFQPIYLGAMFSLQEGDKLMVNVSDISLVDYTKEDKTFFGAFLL

[11] = target: T7, HuTL1A mutant K240A (mutant number 4136) (human, UniProt O95150 57-251, limits assumed); experiment: BLI (Gator) on antigen mutant K240A
T7 construct: whole entry named
T7 chain: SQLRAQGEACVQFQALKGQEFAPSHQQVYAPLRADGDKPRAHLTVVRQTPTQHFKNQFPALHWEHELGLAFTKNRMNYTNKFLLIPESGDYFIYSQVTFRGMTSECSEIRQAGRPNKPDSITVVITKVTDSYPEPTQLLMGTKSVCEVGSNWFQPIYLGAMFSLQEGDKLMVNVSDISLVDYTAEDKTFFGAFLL

[12] = target: T8, HuTL1A mutant E120A (mutant number 4138) (human, UniProt O95150 57-251, limits assumed); experiment: BLI (Gator) on antigen mutant E120A
T8 construct: whole entry named
T8 chain: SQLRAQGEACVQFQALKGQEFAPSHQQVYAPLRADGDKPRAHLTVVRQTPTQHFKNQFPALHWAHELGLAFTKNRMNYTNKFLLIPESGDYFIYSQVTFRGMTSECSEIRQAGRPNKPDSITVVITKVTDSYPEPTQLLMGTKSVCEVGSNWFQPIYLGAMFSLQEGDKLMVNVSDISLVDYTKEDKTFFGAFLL

[13] = target: T9, HuTL1A mutant T239A (mutant number 4135) (human, UniProt O95150 57-251, limits assumed); experiment: BLI (Gator) on antigen mutant T239A
T9 construct: whole entry named
T9 chain: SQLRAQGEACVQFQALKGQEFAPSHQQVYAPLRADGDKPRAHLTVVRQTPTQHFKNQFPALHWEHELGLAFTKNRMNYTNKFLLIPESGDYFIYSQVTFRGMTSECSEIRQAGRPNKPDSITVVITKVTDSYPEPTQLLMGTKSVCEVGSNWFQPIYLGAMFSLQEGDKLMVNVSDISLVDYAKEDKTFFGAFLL

[14] = target: T10, HuTL1A mutant T105A (mutant number 4140) (human, UniProt O95150 57-251, limits assumed); experiment: BLI (Gator) on antigen mutant T105A
T10 construct: whole entry named
T10 chain: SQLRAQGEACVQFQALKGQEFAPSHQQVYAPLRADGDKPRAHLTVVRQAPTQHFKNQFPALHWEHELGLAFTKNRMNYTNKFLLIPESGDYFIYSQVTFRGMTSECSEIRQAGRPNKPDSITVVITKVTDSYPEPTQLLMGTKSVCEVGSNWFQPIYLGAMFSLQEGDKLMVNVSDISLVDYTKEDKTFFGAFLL

- EC50 (read off the curve) (human TL1A (HuTL1A) [1]): ~0.6 nM
- Kd [2]: 5850 nM
- Kd [3]: 7.82 nM
- Kd [4]: 12100 nM
- Kd (human TL1A (HuTL1A) [5]): 8.39 nM
- EC50 (read off the curve) (human TL1A (HuTL1A) [6]): ~0.6 nM
- Kd [7]: 6.09 nM
- koff [7]: 0.00375 s⁻¹
- kon [7]: 616000 M⁻¹ s⁻¹
- Kd (human TL1A (HuTL1A) [8]): 5.92 nM
- koff (human TL1A (HuTL1A) [8]): 0.00353 s⁻¹
- kon (human TL1A (HuTL1A) [8]): 596000 M⁻¹ s⁻¹
- Kd (human TL1A (HuTL1A) [9]): 5.62 nM
- koff (human TL1A (HuTL1A) [9]): 0.00214 s⁻¹
- kon (human TL1A (HuTL1A) [9]): 381000 M⁻¹ s⁻¹
- Kd [10]: 7.73 nM
- Kd [11]: 8.15 nM
- Kd [12]: 17.3 nM
- Kd [13]: 11.6 nM
- Kd [14]: 6.65 nM
B1: single-arm antibody M701-3973 (antibody, human IgG1, kappa, L234A L235A)
heavy: ELQLQESGPGLVKPSETLSLTCAVSGVSFSDYHWAWIRQPPGKGLEWIGDINHRGHTNYNPSLKSRVTVSIDTSKNQFSLKLSSVTAADTAVYFCARDFPNFIFDFWGQGTLVTVSSASTKGPSVFPLAPSSKSTSGGTAALGCLVKDYFPEPVTVSWNSGALTSGVHTFPAVLQSSGLYSLSSVVTVPSSSLGTQTYICNVNHKPSNTKVDKKVEPKSCDKTHTCPPCPAPEAAGGPSVFLFPPKPKDTLMISRTPEVTCVVVDVSHEDPEVKFNWYVDGVEVHNAKTKPREEQYNSTYRVVSVLTVLHQDWLNGKEYKCKVSNKALGAPIEKTISKAKGQPREPQVYTLPPCREEMTKNQVSLWCLVKGFYPSDIAVEWESNGQPENNYKTTPPVLDSDGSFFLYSKLTVDKSRWQQGNVFSCSVMHEALHNHYTQKSLSLSPG
light: not shown
chain: DKTHTCPPCPAPEAAGGPSVFLFPPKPKDTLMISRTPEVTCVVVDVSHEDPEVKFNWYVDGVEVHNAKTKPREEQYNSTYRVVSVLTVLHQDWLNGKEYKCKVSNKALGAPIEKTISKAKGQPREPQVCTLPPSREEMTKNQVSLSCAVKGFYPSDIAVEWESNGQPENNYKTTPPVLDSDGSFFLVSKLTVDKSRWQQGNVFSCSVMHEALHNHYTQKSLSLSPG
